Source: patent US9205132B2, “Method of lowering mortality” (CORTHERA, INC., priority 2008, dated 2015)
Marks after values point to notes of the source that are not given here.

Key:
[1] = tested on: patients with acute heart failure (AHF); experiment: Post-discharge outcomes to Day 60 and Day 180 (death, rehospitalization), Pre-RELAX-AHF trial; conditions: for Days alive out of hospital: Day 60, mean ± SD
Experimental: Patient-reported dyspnea was assessed using both a standard 7-point Likert Scale and a standard 100-mm Visual Analog Scale (VAS). Assessments were performed at baseline (VaS only), 6 h, 12 h, 24 h, 48 h after initiation of drug therapy and at Days 3, 4, 5 and 14. Questionnaires were administered in the local language, and investigators received training in the standardized administration of these evaluations. Daily, serial physician-reported assessments of heart failure signs and symptoms were, conducted including jugular venous distension, rales, edema, orthopnea, and dyspnea on exertion, in-hospital worsening heart failure was defined as a physician-determined assessment based on worsening symptoms or signs of heart failure and the need for the addition or institution of IV medications or mechanical support to treat AHF. Vital status and rehospitalization information was collected by telephone at Day 30, Day 60 and (vital status only at.) Day 180. When the last enrolled patient reached Day 60, telephone contact was made with all patients who were between Day 60 and Day 180 of follow-up to complete the study.
1.) Relief of dyspnea, assessed with two complementary Instruments; (a) Change in dyspnea by Likert scale, and (b) Change from baseline by Visual Analog Scale. 2.) In-hospital worsening heart failure (WMF) to Day 5. […] 4.) Length of initial hospital stay. 5.) Days alive and out-of-hospital to Day 60. 6.) Death due to cardiovascular causes or rehospitalization for heart failure or renal failure to Day 60. 7.) Mortality due to cardiovascular causes to Day 180. In addition, serial assessments of safety were performed including vital-signs, physical examinations, adverse events and clinical laboratory evaluations.
Data are presented as means with standard deviations unless otherwise specified. Missing data were generally imputed by a last-observation-carried-forward approach. The worst observed dyspnea Likert or VAS score was carried forward from the time of death or worsening heart failure. The area under the curve representing the change in VAS score from baseline through Day 5 was computed by trapezoidal rule. For patients who died during the initial hospitalization, length of stay was imputed as the maximum observed plus 1 day (33 days). […] To control for regional variations in this relatively small study, region as a covariate or stratifying variable was prospectively pre-specified in the analyses of treatment effect. Rehospitalization and mortality rates through Day 180 were estimated using Kaplan-Meier (product-limit) methods, and groups compared using the Wald test of the treatment effect from Cox regression models, where time-to-event was censored at last patient contact for patients without the event of interest.

[2] = tested on: patients with acute heart failure (AHF); experiment: Safety endpoints (adverse events, blood pressure, renal impairment, clinical laboratory), Pre-RELAX-AHF trial; format: in vivo, human; conditions: for change from baseline in mean hematocrit at 48 hours: described as transient decrease
Experimental: Study Procedures. The study was approved by the relevant ethics committees, institutional review hoards and regulatory authorities, and conducted under the International Conference on Harmonization Good Clinical Practice guidelines. All patients provided informed written consent prior to participation. […] The placebo used for the study was the same solution as the diluent used to prepare the 100 μg/kg/day dose. The randomization ratio was 3:2:2:2:2, respectively, Relaxin (Corthera, San Mateo, Calif.) was manufactured using recombinant techniques and was identical to the naturally-occurring peptide hormone. By protocol, the study drug infusion was to be terminated if the patient's SBP was reduced to <100 mmHg or by >40 mmHg compared to baseline in two successive measurements, 15 minutes apart. Investigators were not prohibited from utilizing any standard medication, thought necessary to treat patients enrolled in the study, including additional vasodilators, following a 4-hour washout period during which time IV vasodilators, IV pure inotropes and meals were withheld, hemodynamic, renal, and clinical responses to 48 hours of study drug infusion were assessed.
Study Endpoints. […] 4.) Length of initial hospital stay.

Substance: Relaxin
- estimated hazard reduction, death due to cardiovascular causes or rehospitalization due to heart failure or renal failure at day 60 ([1]; 30 mcg/kg/d IV 48 h, vs placebo): 87%
- Days alive out of hospital ([1]; 10 mcg/kg/d IV 48 h): 47.0 ± 13.0 days
- Days alive out of hospital ([1]; 30 mcg/kg/d IV 48 h): 47.9 ± 10.1 days
- Days alive out of hospital ([1]; 100 mcg/kg/d IV 48 h): 48 ± 10.1 days
- Days alive out of hospital ([1]; 250 mcg/kg/d IV 48 h): 47.6 ± 12.0 days
- All-cause death (KM %) ([1]; Day 180, 10 mcg/kg/d IV 48 h): 5.0%
- mean number of days alive and out-of-hospital at Day 60, greater than placebo ([1]; relaxin-treated patients vs placebo): approximately 4 days
- Patients with any AE from Day 15 to Day 30, n (%) ([2]; 10 mcg/kg/d IV 48 h): 4 (10.0%) n (%)
- Patients with any SAEs to Day 30, n (%) ([2]; 10 mcg/kg/d IV 48 h): 7 (17.5%) n (%)
- Patients with any adverse events to Day 30, n (%) ([2]; 10 mcg/kg/d IV 48 h): 32 (80.0%) n (%)
- Protocol-specified study drug discontinuation due to blood pressure reduction ([2]; 10 mcg/kg/d IV 48 h): 20.0%
- Renal impairment: Patients with ≧0.3 mg/dL increase in creatinine at Day 5 ([2]; 10 mcg/kg/d IV 48 h): 3 (7.9%) n (%)
- Renal impairment: Patients with ≧0.3 mg/dL increase in creatinine at Day 5 and Day 14 ([2]; 10 mcg/kg/d IV 48 h): 3 (7.5%) n (%)
- Renal impairment: Patients with ≧25% increase in creatinine at Day 5 ([2]; 10 mcg/kg/d IV 48 h): 4 (10.0%) n (%)
- SAE to Day 30: Acute respiratory failure, n (%) ([2]; 10 mcg/kg/d IV 48 h): 0 n (%)
- SAE to Day 30: Bronchitis, n (%) ([2]; 10 mcg/kg/d IV 48 h): 0 n (%)
- SAE to Day 30: Cardiac failure, n (%) ([2]; 10 mcg/kg/d IV 48 h): 2 (5.0%) n (%)
- SAE to Day 30: Cerebrovascular accident, n (%) ([2]; 10 mcg/kg/d IV 48 h): 0 n (%)
- SAE to Day 30: Hypotension, n (%) ([2]; 10 mcg/kg/d IV 48 h): 0 n (%)
- SAE to Day 30: Noncardiac chest pain, n (%) ([2]; 10 mcg/kg/d IV 48 h): 2 (5.0%) n (%)
- SAE to Day 30: Pneumonia, n (%) ([2]; 10 mcg/kg/d IV 48 h): 0 n (%)
- SAE to Day 30: Renal failure, n (%) ([2]; 10 mcg/kg/d IV 48 h): 0 n (%)
- SAE to Day 30: Urinary retention, n (%) ([2]; 10 mcg/kg/d IV 48 h): 0 n (%)
- SAE to Day 30: Urinary tract infection, n (%) ([2]; 10 mcg/kg/d IV 48 h): 0 n (%)
- SAE to Day 30: Ventricular fibrillation, n (%) ([2]; 10 mcg/kg/d IV 48 h): 1 (2.5%) n (%)
- mean change in creatinine from baseline at Day 14 ([2]; 10 mcg/kg/d IV 48 h): 0.07 ± 0.24 mg/dL
- patients requiring treatment of blood pressure reduction ([2]; 10 mcg/kg/d IV 48 h): None of the patients
- proportion of patients at Day 14 with an increase in creatinine of 0.3 mg/dL or more ([2]; 10 mcg/kg/d IV 48 h): 19.4%
- change from baseline in mean hematocrit at 48 hours ([2]; 10 mcg/kg/d IV 48 h): 0.57%
- Patients with any AE from Day 15 to Day 30, n (%) ([2]; 30 mcg/kg/d IV 48 h): 5 (11.9%) n (%)
- Patients with any SAEs to Day 30, n (%) ([2]; 30 mcg/kg/d IV 48 h): 7 (16.7%) n (%)
- Patients with any adverse events to Day 30, n (%) ([2]; 30 mcg/kg/d IV 48 h): 25 (59.5%) n (%)
- Protocol-specified study drug discontinuation due to blood pressure reduction ([2]; 30 mcg/kg/d IV 48 h): 9.5%
- Renal impairment: Patients with ≧0.3 mg/dL increase in creatinine at Day 5 ([2]; 30 mcg/kg/d IV 48 h): 7 (18.9%) n (%)
- Renal impairment: Patients with ≧0.3 mg/dL increase in creatinine at Day 5 and Day 14 ([2]; 30 mcg/kg/d IV 48 h): 3 (7.3%) n (%)
- Renal impairment: Patients with ≧25% increase in creatinine at Day 5 ([2]; 30 mcg/kg/d IV 48 h): 9 (22.0%) n (%)
- SAE to Day 30: Acute respiratory failure, n (%) ([2]; 30 mcg/kg/d IV 48 h): 0 n (%)
- SAE to Day 30: Bronchitis, n (%) ([2]; 30 mcg/kg/d IV 48 h): 1 (2.4%) n (%)
- SAE to Day 30: Cardiac failure, n (%) ([2]; 30 mcg/kg/d IV 48 h): 1 (2.4%) n (%)
- SAE to Day 30: Cerebrovascular accident, n (%) ([2]; 30 mcg/kg/d IV 48 h): 2 (4.8%) n (%)
- SAE to Day 30: Hypotension, n (%) ([2]; 30 mcg/kg/d IV 48 h): 0 n (%)
- SAE to Day 30: Noncardiac chest pain, n (%) ([2]; 30 mcg/kg/d IV 48 h): 0 n (%)
- SAE to Day 30: Pneumonia, n (%) ([2]; 30 mcg/kg/d IV 48 h): 3 (7.1%) n (%)
- SAE to Day 30: Renal failure, n (%) ([2]; 30 mcg/kg/d IV 48 h): 1 (2.4%) n (%)
- SAE to Day 30: Urinary retention, n (%) ([2]; 30 mcg/kg/d IV 48 h): 0 n (%)
- SAE to Day 30: Urinary tract infection, n (%) ([2]; 30 mcg/kg/d IV 48 h): 1 (2.4%) n (%)
- SAE to Day 30: Ventricular fibrillation, n (%) ([2]; 30 mcg/kg/d IV 48 h): 0 n (%)
- mean change in creatinine from baseline at Day 14 ([2]; 30 mcg/kg/d IV 48 h): 0.13 ± 0.49 mg/dL
- mean decrease in SBP compared to placebo during infusion ([2]; 30 mcg/kg/d IV 48 h): 3-4 mmHg
- patients requiring treatment of blood pressure reduction ([2]; 30 mcg/kg/d IV 48 h): None of the patients
- proportion of patients at Day 14 with an increase in creatinine of 0.3 mg/dL or more ([2]; 30 mcg/kg/d IV 48 h): 26.3%
- change from baseline in mean hematocrit at 48 hours ([2]; 30 mcg/kg/d IV 48 h): 1.45%
- Patients with any AE from Day 15 to Day 30, n (%) ([2]; 100 mcg/kg/d IV 48 h): 2 (5.3%) n (%)
- Patients with any SAEs to Day 30, n (%) ([2]; 100 mcg/kg/d IV 48 h): 3 (7.9%) n (%)
- Patients with any adverse events to Day 30, n (%) ([2]; 100 mcg/kg/d IV 48 h): 24 (63.2%) n (%)
- Protocol-specified study drug discontinuation due to blood pressure reduction ([2]; 100 mcg/kg/d IV 48 h): 7.9%
- Renal impairment: Patients with ≧0.3 mg/dL increase in creatinine at Day 5 ([2]; 100 mcg/kg/d IV 48 h): 9 (26.5%) n (%)
- Renal impairment: Patients with ≧0.3 mg/dL increase in creatinine at Day 5 and Day 14 ([2]; 100 mcg/kg/d IV 48 h): 4 (10.8%) n (%)
- Renal impairment: Patients with ≧25% increase in creatinine at Day 5 ([2]; 100 mcg/kg/d IV 48 h): 11 (29.7%) * n (%)
- SAE to Day 30: Acute respiratory failure, n (%) ([2]; 100 mcg/kg/d IV 48 h): 1 (2.6%) n (%)
- SAE to Day 30: Bronchitis, n (%) ([2]; 100 mcg/kg/d IV 48 h): 0 n (%)
- SAE to Day 30: Cardiac failure, n (%) ([2]; 100 mcg/kg/d IV 48 h): 0 n (%)
- SAE to Day 30: Cerebrovascular accident, n (%) ([2]; 100 mcg/kg/d IV 48 h): 0 n (%)
- SAE to Day 30: Hypotension, n (%) ([2]; 100 mcg/kg/d IV 48 h): 0 n (%)
- SAE to Day 30: Noncardiac chest pain, n (%) ([2]; 100 mcg/kg/d IV 48 h): 0 n (%)
- SAE to Day 30: Pneumonia, n (%) ([2]; 100 mcg/kg/d IV 48 h): 0 n (%)
- SAE to Day 30: Renal failure, n (%) ([2]; 100 mcg/kg/d IV 48 h): 0 n (%)
- SAE to Day 30: Urinary retention, n (%) ([2]; 100 mcg/kg/d IV 48 h): 2 (5.3%) n (%)
- SAE to Day 30: Urinary tract infection, n (%) ([2]; 100 mcg/kg/d IV 48 h): 0 n (%)
- SAE to Day 30: Ventricular fibrillation, n (%) ([2]; 100 mcg/kg/d IV 48 h): 0 n (%)
- mean change in creatinine from baseline at Day 14 ([2]; 100 mcg/kg/d IV 48 h): 0.08 ± 0.39 mg/dL
